Test results as given in publication PMC6288613, “Mouse REC114 is essential for meiotic DNA double-strand break formation and forms a complex with MEI4” (Life Science Alliance, 2018).

Target: the molecule itself
Experiment: SEC-MALS; SEC-MALLS, Superdex 75; 50 ul of purified protein injected at 10, 5 and 2 mg/ml; dimer to monomers, fast exchange

B1: Mouse REC114 (15-159) (domain or fragment, UniProt Q9CWH4 15-159, looked up)
chain: GEVSQWSLKRYGRFMLLDNVGSPGPSSEAAAAGSPTWKVFESSEESGSLVLTIVVSGHFFISQGQTLLEGFSLIGSKNWLKIVRRMDCLLFGTTIKNKSRMFRVQFSGESKEEALERCCGCVQTLAQYVTVQEPDSTTQELQQSQ
notes: REC114, mouse, residues 15-159 (PH domain), expressed from pProEXHTb; final crystallographic model includes residues 15-150; A selenomethionine-substituted form was also crystallised for phasing; also called REC114 PH domain; REC114 N-terminal region; source: E. coli BL21-Gold (DE3), purified (Ni2+ resin, TEV cleavage, second Ni2+ column, size-exclusion chromatography)
stoichiometry N: 2
